T1: ammonium channel (AmtB) from Escherichia coli (Escherichia coli, UniProt P69681 23-428)
T1 construct: Ammonium channel AmtB, Escherichia coli, wild-type; Expressed as pelB signal peptide - 10x His - MBP - TEV site - AmtB from pET15b; tagless after TEV cleavage; also called ammonia channel; AmtB wild-type; source: E. coli C41(DE3), purified (membranes extracted with octyl glucoside, HisTrap, TEV cleavage, reverse HisTrap); for native MS co-purified with stGlnK (StrepTrap, Superdex 200 Increase); …
T1 sequence: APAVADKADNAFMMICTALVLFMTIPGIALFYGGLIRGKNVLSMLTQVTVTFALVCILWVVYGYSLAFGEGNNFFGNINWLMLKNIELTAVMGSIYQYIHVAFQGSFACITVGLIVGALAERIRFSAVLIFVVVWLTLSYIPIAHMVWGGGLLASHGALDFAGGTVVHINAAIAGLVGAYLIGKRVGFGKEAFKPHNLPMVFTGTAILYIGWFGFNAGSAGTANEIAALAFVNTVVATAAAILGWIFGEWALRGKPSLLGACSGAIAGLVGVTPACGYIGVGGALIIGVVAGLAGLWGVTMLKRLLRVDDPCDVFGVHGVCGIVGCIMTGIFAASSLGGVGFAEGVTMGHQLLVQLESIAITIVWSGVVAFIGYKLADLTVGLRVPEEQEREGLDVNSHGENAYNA

T2: ammonium channel (AmtB) from Escherichia coli, wild-type, tagless (E. coli, UniProt P69681 23-428)
T2 construct: AmtB, ammonium channel, Escherichia coli, wild-type; expressed behind a pelB secretion signal, 10x His-tag, MBP and a TEV site, all removed; also called ammonia channel; source: E. coli C41(DE3), extracted from membranes with octyl glucoside, purified (HisTrap, TEV cleavage, reverse HisTrap); not shown: 10x His-tag, N-terminal, cleaved
T2 sequence: T1 sequence

B1: Strep-tag II-tagged GlnK (stGlnK), Y51F (natural protein, Escherichia coli)
chain: MKLVTVIIKPFKLEDVREALSSIGIQGLTVTEVKGFGRQKGHAELYRGAEFSVNFLPKVKIDVAIADDQLDEVIDIVSKAAYTGKIGDGKIFVAELQRVIRIRTGEADEAAL
notes: Nitrogen regulatory protein GlnK, Escherichia coli; Expressed from pET28b; Y51F prevents uridylylation by GlnD; source: E. coli ArcticExpress (DE3) RIL, purified (StrepTrap HP, Superdex 75)
B2: Strep-tag II-tagged GlnK (stGlnK), Y51F (natural protein, E. coli)
chain: B1 chain
notes: GlnK, nitrogen regulatory protein (PII-2), Escherichia coli, with the point mutation Y51F that prevents uridylylation by GlnD; source: E. coli ArcticExpress (DE3) RIL, purified (StrepTrap, Superdex 75)

Experiments:
Settings in all cases: both partners purified
[1] = target: T1, ammonium channel (AmtB) from …; assay: native MS; AmtB-GlnK at 2 uM titrated with POPA; 200 mM ammonium acetate pH 7.4, 0.5% C8E4, 50 uM ADP, 298 K; global fit of the equilibrium-coupled AmtB-GlnK-lipid binding model; apparent constants
[2] = target: T1, ammonium channel (AmtB) from …; assay: native MS; AmtB-GlnK at 2 uM titrated with DLPG (12:0); 200 mM ammonium acetate pH 7.4, 0.5% C8E4, 50 uM ADP; global fit of the equilibrium-coupled AmtB-GlnK-lipid binding model; apparent constants
[3] = target: T1, ammonium channel (AmtB) from …; assay: native MS; AmtB-GlnK at 2 uM titrated with POPC; 200 mM ammonium acetate pH 7.4, 0.5% C8E4, 50 uM ADP, 298 K; global fit of the equilibrium-coupled AmtB-GlnK-lipid binding model; apparent constants
[4] = target: T1, ammonium channel (AmtB) from …; assay: native MS; AmtB-GlnK at 2 uM titrated with DMPG (14:0); 200 mM ammonium acetate pH 7.4, 0.5% C8E4, 50 uM ADP; global fit of the equilibrium-coupled AmtB-GlnK-lipid binding model; apparent constants
[5] = target: T1, ammonium channel (AmtB) from …; assay: native MS; AmtB-GlnK at 2 uM titrated with TOCDL (cardiolipin); 200 mM ammonium acetate pH 7.4, 0.5% C8E4, 50 uM ADP, 298 K; global fit of the equilibrium-coupled AmtB-GlnK-lipid binding model; apparent constants
[6] = target: T1, ammonium channel (AmtB) from …; assay: native MS; AmtB-GlnK at 2 uM titrated with DOPE (trans, 18:1); 200 mM ammonium acetate pH 7.4, 0.5% C8E4, 50 uM ADP; global fit of the equilibrium-coupled AmtB-GlnK-lipid binding model; apparent constants
[7] = target: T1, ammonium channel (AmtB) from …; assay: native MS; AmtB-GlnK at 2 uM titrated with DOPE (cis, 18:1); 200 mM ammonium acetate pH 7.4, 0.5% C8E4, 50 uM ADP; global fit of the equilibrium-coupled AmtB-GlnK-lipid binding model; apparent constants
[8] = target: T1, ammonium channel (AmtB) from …; assay: native MS; AmtB-GlnK at 2 uM titrated with DPPG (16:0); 200 mM ammonium acetate pH 7.4, 0.5% C8E4, 50 uM ADP; global fit of the equilibrium-coupled AmtB-GlnK-lipid binding model; apparent constants
[9] = target: T1, ammonium channel (AmtB) from …; assay: native MS; AmtB-GlnK at 2 uM titrated with POPE; 200 mM ammonium acetate pH 7.4, 0.5% C8E4, 50 uM ADP, 298 K; global fit of the equilibrium-coupled AmtB-GlnK-lipid binding model; apparent constants
[10] = target: T1, ammonium channel (AmtB) from …; assay: native MS; AmtB-GlnK at 2 uM titrated with SOPE (18:0-18:1, cis); 200 mM ammonium acetate pH 7.4, 0.5% C8E4, 50 uM ADP; global fit of the equilibrium-coupled AmtB-GlnK-lipid binding model; apparent constants
[11] = target: T1, ammonium channel (AmtB) from …; assay: native MS; AmtB-GlnK at 2 uM titrated with POPG; 200 mM ammonium acetate pH 7.4, 0.5% C8E4, 50 uM ADP, 298 K; global fit of the equilibrium-coupled AmtB-GlnK-lipid binding model; apparent constants
[12] = target: T1, ammonium channel (AmtB) from …; assay: native MS; AmtB-GlnK at 2 uM titrated with POPS; 200 mM ammonium acetate pH 7.4, 0.5% C8E4, 50 uM ADP, 298 K; global fit of the equilibrium-coupled AmtB-GlnK-lipid binding model; apparent constants
[13] = target: T2, ammonium channel (AmtB) from …; assay: native MS; ADP titration series; at and above 100 uM ADP (asymptote); AmtB-GlnK 2 uM, 200 mM ammonium acetate pH 7.4, 0.5% C8E4

Binder	Kd [1]	Kd [2]	Kd [3]	Kd [4]	Kd [5]	Kd [6]	Kd [7]	Kd [8]	Kd [9]	Kd [10]	Kd [11]	Kd [12]	Kd [13]
B1	517 nM	522 nM	486 nM	551 nM	517 nM	556 nM	517 nM	521 nM	504 nM	528 nM	540 nM	500 nM	–
B2	–	–	–	–	–	–	–	–	–	–	–	–	~80 nM
